In patent US20120264231A1, “ASSAY FOR ORAI CALCIUM CHANNEL REGULATORS” (IMMUNE DISEASE INSTITUTE, INC., priority 2009, published 2012):

Molecular target: ORAI1 (Homo sapiens, UniProt Q96D31)
Assay: Cameleon D3 cpV/D4 cpV intravesicular Ca^2+ assay, sec6-4 vesicles with ORAI1
Assay type: biochemical
Set-up: the ORAI functional fragment is ORAI1 (65-301), ORAI1 (65-87), or full length ORAI1; made in house; host or cells: S. cerevisiae NY17 (sec6-4), isolated secretory vesicles, vector pBEVY-GU
Method: In complementary measurements, vesicular Ca^2+ was monitored directly by coexpressing ORAI1 with the Ca^2+ sensor D3 cpV or D4 cpV53 fused to the α-mating factor secretion signal to target the sensor to the vesicles. Vesicles that had incorporated ORAI1 were isolated from sec6-4 yeast incubated at the restrictive temperature and were diluted into assay buffer.
Vesicles carrying ORAI 1 were isolated from S cerevisiae strain NY1 7 according to a standard protocol (Coury, L. A., et al., Methods Enzymol 306, 169-186 (1999); Nakamoto, R. K., et al., J Biol Chem 266, 7940-7949 (1991)). Efflux of Ca^2+ elicited by STIM1^CT fragments was detected by suspending the vesicles in a buffer containing Fura-2 as principal Ca^2+ buffer, and monitoring the Fura-2 fluorescence excitation spectrum (Meyer, T., et al., Biochemistry 29, 32-37 (1990)). As a complementary approach, ORAI 1 was coexpressed with a Ca^2+ sensor cameleon D3 cpV or cameleon D4 cpV53 that was targeted to the vesicles, and changes in intravesicular [Ca^2+] were detected as changes in FRET between CFP and YFP of the sensor.
The yeast expression vector pBEVY-GU60 allows for simultaneous expression of two transgenes by means of the bidirectional GAL1-10 promoter. The FRET-based calcium sensors D3 cpV and D4 cpV53 were fused at the N-terminus with the S. cerevisiae α-mating factor secretion signal (Bitter, G. A., et al., Proc Natl Acad Sci USA 81, 5330-5334 (1984)), which directs proteins into the secretory pathway, and introduced into pBEVY-GU in the following way. Vector pPIC9 (Invitrogen) served as template for PCR amplification of the α-mating factor secretion signal (5′ primer: […] (SEQ ID NO: 2); 3′ primer: […] (SEQ ID NO: 3)), introducing an EcoRI site at the 5′ end, and a sequence complementary to that encoding the N-terminus of the calcium sensor at the 3′ end. DNA encoding the N-terminal portion of the calcium sensor D3 cpV, comprising CFP, was amplified by PCR (5′ primer: […] (SEQ ID NO: 4); 3′ primer: […] (SEQ ID NO: 5)), introducing an SphI site followed by a stop codon and a NotI site at the 3′ end of the resulting DNA fragment. PCR-mediated fusion of the fragments representing the α-mating factor secretion signal and the sensor CFP fragment yielded αCFP, which was digested with EcoRI and NotI and subcloned into pSM703. […] Human ORAI1 was Myc-tagged at the N-terminus by PCR (5′ primer: […] (SEQ ID NO: 6); 3′ primer: […] TGGCTGCCGGGC (SEQ ID NO: 7)) and subcloned as an EcoRI-BamHI fragment into pSM703. A fragment containing Myc-ORAI1 was excised from the resulting plasmid by EcoRI digestion, blunt-ended with the Klenow fragment of DNA polymerase I, and cut with AvrII. […]

[1] = STIM 1 cytoplasmic fragments 2 μM

Chain of ORAI1 (Q96D31 2-301): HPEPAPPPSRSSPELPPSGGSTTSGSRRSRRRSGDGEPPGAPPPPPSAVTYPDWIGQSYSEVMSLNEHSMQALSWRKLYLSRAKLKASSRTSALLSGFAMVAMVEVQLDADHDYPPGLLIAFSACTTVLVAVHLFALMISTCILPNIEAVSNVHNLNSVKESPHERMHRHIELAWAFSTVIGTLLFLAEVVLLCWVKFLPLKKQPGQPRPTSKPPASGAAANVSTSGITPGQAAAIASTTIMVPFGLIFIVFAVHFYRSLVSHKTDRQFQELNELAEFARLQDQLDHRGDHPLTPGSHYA

Compound: STIM1^CT: cytoplasmic region of STIM1, mouse residues 233-685, His-tagged recombinant protein expressed in E coli
- fluorescence intensity ratio F528 nm/F475 nm (D3 cpV sensor, wildtype ORAI1, STIM^CT 2.6 μM, p<0.001): changes the ratio significantly
- vesicular Ca^2+ (cameleon FRET signal) [1]: triggered substantial loss of vesicular Ca^2+

Compound: C[C@H](CCC(=O)O)C[C@H](C)C[C@H](C)C(=O)/C=C(\O)[C@H](C)C[C@H](C)C/C=C/[C@@H](C)[C@@H](O)[C@@H](C)[C@@H](O)C[C@@H]1CC[C@@](C)([C@H]2CC[C@@](C)([C@@H](C)O)O2)O1 [ionomycin, reference compound]
- vesicular Ca^2+ (cameleon FRET signal) (ionomycin 20 μM): depletion of vesicular Ca^2+

Compound: STIM1 (233-498): truncated mouse STIM1 cytoplasmic fragment, residues 233-498, His-tagged recombinant protein
- vesicular Ca^2+ (cameleon FRET signal) [1]: triggered substantial loss of vesicular Ca^2+
